The values below come from patent US20230374132A1 (Innovent, published 2023).

Usually Kd stands for the free concentration of one partner at which half of the binding sites on the other are occupied at equilibrium, for simple one-to-one binding. The koff is a measure of how fast the partners let go of each other. Broadly, the kon is the rate constant with which the complex forms. In general, EC50 refers to the concentration that produces a half-maximal response.

Numbering of substitutions follows the chain as printed. Names and notes keep the numbering of the source. Like-named read-outs stand apart in the source and are kept apart here.

In experiment [1] the target is T1, human CD3 E&D complex protein (Sino Biological Inc., CT026H0323H) (human, UniProt P07766 23-126; P04234 22-105).
T1 construct: bought heterodimer; also called human CD3 protein (CT026H0323H)
T1 sequence (P07766 23-126, chain 1 of 2): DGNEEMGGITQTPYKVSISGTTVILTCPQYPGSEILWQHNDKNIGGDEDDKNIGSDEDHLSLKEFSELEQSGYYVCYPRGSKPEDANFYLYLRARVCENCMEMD
T1 sequence (P04234 22-105, chain 2 of 2): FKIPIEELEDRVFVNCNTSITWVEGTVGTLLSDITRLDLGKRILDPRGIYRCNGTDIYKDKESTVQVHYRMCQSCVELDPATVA
The experiment can be described thus: BLI, antibody on sensor. How it is done: (§1) 100 μl SD buffer, various antibodies, human CD3 E&D complex protein (Sino Biological Inc., CT026H0323H), and cynomolgus monkey CD3 E&D complex protein (Sino Biological Inc., CT032-00323H) were added into 96-well black polystyrene semi-quantitative micro-well plate (Greiner, 675076) respectively. Fortebio Octet Red 96 was used for detection, and the sensor position was selected according to the sample position. The setting parameters of the instrument are as follows: operation steps: Baseline, Loading-1 nm, Baseline, Association and Dissociation; the operation time of each step depends on the speed of sample association and dissociation. The rotational speed is 1000 rpm and the temperature is 30° C. ForteBio Octet analysis software was used to analyze KD value.
On the technique in general: BLI is a label-free optical method that tracks binding on a fibre tip over time.

Experiment [2] deals with T2, cynomolgus monkey CD3 E&D complex protein (Sino Biological Inc., CT032-00323H) (cynomolgus monkey, UniProt Q95LI5 22-117; Q95LI8 22-105).
T2 construct: bought heterodimer
T2 sequence (Q95LI5 22-117, chain 1 of 2): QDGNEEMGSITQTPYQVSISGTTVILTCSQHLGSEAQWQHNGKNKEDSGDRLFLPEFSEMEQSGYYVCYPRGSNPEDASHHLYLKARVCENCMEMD
T2 sequence (Q95LI8 22-105, chain 2 of 2): as the sequence (P04234 22-105, chain 2 of 2) above, with I5V, N15K, I20V, S32T, D33N, I34N, T64A, S74N, V83L counted along it
In words: BLI, antibody on sensor. How it is done: as §1

Experiment [3] has as its target T1, human CD3 E&D complex protein (Sino …). The experiment can be described thus: BLI, antibody on sensor. The source holds these as a separate data set.
For experiment [4], the target named is T3, human CD3E&G complex (Sino Biological Inc., CT041-H0305H) (human, UniProt P07766 23-126; P09693 23-116).
T3 construct: bought heterodimer; also called human CD3E&G antigen
T3 sequence (P07766 23-126, chain 1 of 2): as the sequence (P07766 23-126, chain 1 of 2) above
T3 sequence (P09693 23-116, chain 2 of 2): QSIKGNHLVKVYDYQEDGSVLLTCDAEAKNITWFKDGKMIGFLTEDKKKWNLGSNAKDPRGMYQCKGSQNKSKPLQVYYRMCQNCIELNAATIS
The experiment can be described thus: BLI, antibody on sensor.

The target of experiment [5] is T4, human CD3 complex on Jurkat cells (human, UniProt P07766 23-207; P04234 22-171; P09693 23-182).
T4 construct: whole, on cells; natural CD3 complex of Jurkat T cells (also used here for CD3 on T cells of human PBMC); also called human CD3 at the cell level; CD3 on T cells
T4 sequence (P07766 23-207, chain 1 of 3): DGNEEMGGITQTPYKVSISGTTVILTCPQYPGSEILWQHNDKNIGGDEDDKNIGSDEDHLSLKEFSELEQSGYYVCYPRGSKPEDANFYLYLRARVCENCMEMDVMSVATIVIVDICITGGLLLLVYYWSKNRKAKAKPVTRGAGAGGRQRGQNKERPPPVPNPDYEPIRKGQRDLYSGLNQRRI
T4 sequence (P04234 22-171, chain 2 of 3): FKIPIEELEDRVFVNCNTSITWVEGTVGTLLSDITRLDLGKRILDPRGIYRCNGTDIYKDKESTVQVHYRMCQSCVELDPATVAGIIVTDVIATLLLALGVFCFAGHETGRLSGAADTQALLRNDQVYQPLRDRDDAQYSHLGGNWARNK
T4 sequence (P09693 23-182, chain 3 of 3): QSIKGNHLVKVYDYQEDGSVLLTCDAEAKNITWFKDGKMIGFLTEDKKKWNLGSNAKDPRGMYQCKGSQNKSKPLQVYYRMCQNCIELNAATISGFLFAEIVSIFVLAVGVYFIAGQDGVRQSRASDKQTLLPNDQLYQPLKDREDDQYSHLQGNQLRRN
The experiment can be described thus: flow cytometry on Jurkat cells (human CD3 complex), 'Jurkat cell line binding', Example 3.2 [cont) D]. The procedure: Jurkat cells are immortalized human T lymphocytes, which express human CD3 complex. The cell line is used to detect the binding of the antibody to the cell. The detailed operation was as follows: Jurkat cells (Promega, J1621) was inoculated into U-shaped 96-well plate, 2×10⁵ for each well. The antibodies to be detected at a series of concentration gradients (the initial concentration of antibody molecule is 500 nM, 3 folds serial dilution) was added into the corresponding cell well, incubated at 4° C. for 30 minutes, and then PBS was used to wash out the unbound part. The sheep anti-human Fc PE fluorescent second antibody (Southern Biotech, J2815-5H87B) was added, then incubated at 4° C. for 15 minutes. and detected by flow cytometry ([…] BD). […] Some of these antibodies were selected to make a further binding curve at cell level.
For orientation: In flow cytometry, cells or beads pass a laser one at a time.

Experiment [6] concerns the target T2, cynomolgus monkey CD3 E&D complex …. The experiment can be described thus: SPR, antigen on chip. How it is done: (§2) The CD3 equilibrium dissociation constant (KD) of Her2×CD3 bispecific antibody was determined using Biacore (GE Healthcare, T200), and the specific method is as follows:
(§3) The human CD3E&G antigen (Sino Biological Inc., CT041-H0305H) and Cynomolgus monkey CD3E&D antigen protein (Sino Biological Inc., CT032-00323H) were coupled to the chip surface. Afterwards, the affinity and kinetic constants were obtained by detecting the binding and dissociation between the chip surface antigen and the antibody in the mobile phase. The method includes chip preparation and affinity detection. 10-fold diluted 10×HBS-EP+(BR-1006-69, GE Healthcare) was used as the experimental buffer during measurement. […] After coupling, 1 M ethanolamine was injected to block the remaining activation sites. Affinity detection cycle is carried out for each concentration of antibody, and each cycle includes binding to antibody with this concentration and chip regeneration. The antibody after serial dilution (Her2-sp34.24: initial concentration 32 nM, 2 folds serial dilution; Her2-sp34.87: initial concentration 200 nM, 2 folds serial dilution; Her2-sp34.80, Her2-sp34.97, Her2-sp34.99, Her2-sp34.101: initial concentration 800 nM, 2 folds serial dilution; all dilute 5 concentration points), flows through the chip surface from low concentration to high concentration at 30 μl/min of the flow rate, with a binding time of 180 s and a dissociation time of 600 s. Finally, 10 mM Glycine pH 1.5 (BR-1003-54, GE Healthcare) was used to regenerate the chip. The data results were analyzed using the Biacore T200 analysis software (version 3.1), and the analysis model used was 1:1 combined model for dynamic analysis.
In general terms: Surface plasmon resonance follows binding to a sensor surface in real time, without labels.

The target in experiment [7] is T3, human CD3E&G complex (Sino Biological …). In words: SPR, antigen on chip. The procedure:
as §2, §3

B1: hzsp34.24 (antibody, human IgG1, lambda, L234A L235A, V domains shown)
VH: EVQLVESGGGLVQPGGSLKLSCAASGFTFNTYAMNWVRQASGKGLEWVGRIRSKYNNYATYYADSVKDRFTISRDDSKSTLYLQMNSLKTEDTAVYYCARHGNFGQSYVSWFAYWGQGTTVTVSS
VL: QAVVTQEPSLTVSPGGTVTLTCRSSTGAVTTSNYANWVQQKPGQAPRGLIGGTNKRAPGVPARFSGSLLGDKAALTLLGAQPEDEAEYYCALWYSNLWVFGQGTKLTVLG
notes: IgG1 L234A L235A, lambda; parent of the CDR mutants
As for B1, the dissociation constant Kd was found to be 0.718 nM in experiment [1], 0.738 nM in experiment [2], 0.975 nM in experiment [3] and 8 nM in experiment [4]. Also, the koff in experiment [1] is 0.00247 s⁻¹; in experiment [2] it was 0.000941 s⁻¹; in experiment [3], 0.000234 s⁻¹; in experiment [4] it was 0.00179 s⁻¹. The on-rate (kon) in experiment [1] turned out to be 3.44e+06 M⁻¹ s⁻¹; in experiment [2], 1.28e+06 M⁻¹ s⁻¹; in experiment [3], 240000 M⁻¹ s⁻¹; in experiment [4], 224000 M⁻¹ s⁻¹. Moreover, in experiment [5], the concentration giving a half-maximal response (EC50) turned out to be 1.25 nM.

B2: hzsp34.38 (antibody, human IgG1, kappa, L234A L235A, V domains shown)
VH: B1 VH with Q106N
VL: EIVMTQSPATLSVSPGERATLSCRSSTGAVTTSNYANWVQQKPGQAPRGLIGGTNKRAPGVPARFSGSGSGTEFTLTISSLQSEDFAVYYCALWYSNLWVFGQGTKLTVLR
notes: IgG1 L234A L235A, kappa
On to B2, for which, in experiment [1], the affinity, expressed as Kd, was 12.7 nM; the off-rate constant (koff) stood at 0.00505 s⁻¹; the kon is 397000 M⁻¹ s⁻¹. In experiment [2], this molecule had a dissociation constant (Kd) of 6.36 nM, a koff of 0.00183 s⁻¹ and a kon of 288000 M⁻¹ s⁻¹. In experiment [5], this molecule returned a concentration giving a half-maximal response (EC50) of 7.85 nM.

B3: Her2-hzsp34.24 (bispecific antibody, IgG1, V domains shown)
VH 1: not shown
VL 1: not shown
VH 2: B1 VH
VL 2: QAVVTQEPSLTVSPGGTVTLTCRSSTGAVTTSNYANWVQQKPGQAPRGLIGGTNKRAPGVPARFSGSLLGDKAALTLLGAQPEDEAEYYCALWYSNLWVFGQGTKLTVL
notes: 1+1 trastuzumab x hzsp34.24, IgG1 LALA knob-into-hole; also called Her2-sp34.24; copies: 1 + 1 + 1 + 1
Regarding B3, in experiment [6], the Kd was 7.2 nM, the dissociation rate constant (koff) was 0.008 s⁻¹ and the on-rate constant (kon) is 1.11e+06 M⁻¹ s⁻¹. Besides, in experiment [7], the dissociation constant Kd was 4.88 nM, the koff amounted to 0.00779 s⁻¹ and the kon came to 1.6e+06 M⁻¹ s⁻¹.

B4: hzsp34.45 (antibody, human IgG1, kappa, L234A L235A, V domains shown)
VH: B1 VH with G49A
VL: B2 VL with T72D
notes: IgG1 L234A L235A, kappa
Turning to B4, in experiment [1], the affinity, expressed as Kd, was 18.4 nM; the dissociation rate constant (koff) amounted to 0.0065 s⁻¹; the kon is 353000 M⁻¹ s⁻¹. In experiment [2], the Kd was 26.9 nM, the koff was determined as 0.00521 s⁻¹ and the kon came out at 194000 M⁻¹ s⁻¹. This molecule gave a 50% effective concentration (EC50) in experiment [5] of 122 nM.

B5: hzsp34.40 (antibody, human IgG1, kappa, L234A L235A, V domains shown)
VH: B1 VH with G49A
VL: B2 VL
notes: IgG1 L234A L235A, kappa
Turning to B5, in experiment [1], the dissociation constant (Kd) came out at 16.8 nM, the koff came to 0.00515 s⁻¹ and the association rate constant (kon) turned out to be 307000 M⁻¹ s⁻¹. In experiment [2], this molecule yielded an equilibrium dissociation constant (Kd) of 15.3 nM, a dissociation rate constant (koff) of 0.003 s⁻¹ and a kon of 196000 M⁻¹ s⁻¹. Further, a half-maximal effect in experiment [5] (EC50) was put at 91.9 nM.

B6: Her2-hzsp34.99 (bispecific antibody, IgG1, V domains shown)
VH 1: not shown
VL 1: not shown
VH 2: B1 VH with F104A, G105Y
VL 2: B3 VL 2
notes: 1+1 trastuzumab x hzsp34.99, IgG1 LALA knob-into-hole; also called Her2-sp34.99; copies: 1 + 1 + 1 + 1
Turning to B6, in experiment [6], the dissociation constant Kd was determined as 1200 nM, the off-rate constant (koff) is 0.1 s⁻¹ and the association rate constant (kon) was 83400 M⁻¹ s⁻¹. In experiment [7], this molecule yielded an equilibrium dissociation constant (Kd) of 627 nM, an off-rate (koff) of 0.0817 s⁻¹ and a kon of 130000 M⁻¹ s⁻¹.

B7: hzsp34.42 (antibody, human IgG1, kappa, L234A L235A, V domains shown)
VH: B1 VH with S79N, Q106N
VL: B2 VL with T72D
notes: IgG1 L234A L235A, kappa
In experiment [1], B7 returned a dissociation constant Kd of 14.7 nM, a koff of 0.00526 s⁻¹ and a kon of 357000 M⁻¹ s⁻¹. In experiment [2], the equilibrium dissociation constant (Kd) is 10.2 nM, the koff stood at 0.00248 s⁻¹ and the kon came out at 243000 M⁻¹ s⁻¹. The 50% effective concentration (EC50) in experiment [5] was found to be 39.2 nM.

B8: Her2-hzsp34.87 (bispecific antibody, IgG1, V domains shown)
VH 1: not shown
VL 1: not shown
VH 2: B1 VH with G102Y
VL 2: B3 VL 2
notes: 1+1 trastuzumab x hzsp34.87, IgG1 LALA knob-into-hole; also called Her2-sp34.87; copies: 1 + 1 + 1 + 1
In experiment [6], B8 returned a Kd of 242 nM, a koff of 0.035 s⁻¹ and an on-rate constant (kon) of 145000 M⁻¹ s⁻¹. In experiment [7], the dissociation constant Kd was determined as 141 nM, the koff is 0.0462 s⁻¹ and the on-rate constant (kon) turned out to be 327000 M⁻¹ s⁻¹.

B9: Her2-hzsp34.80 (bispecific antibody, IgG1, V domains shown)
VH 1: not shown
VL 1: not shown
VH 2: B1 VH with Y32A
VL 2: B3 VL 2
notes: 1+1 trastuzumab x hzsp34.80, IgG1 LALA knob-into-hole; also called Her2-sp34.80; copies: 1 + 1 + 1 + 1
Turning to B9, in experiment [6], the Kd was 1310 nM, the koff was 0.78 s⁻¹ and the kon was 596000 M⁻¹ s⁻¹. In addition, in experiment [7], binding was characterised by a dissociation constant (Kd) of 987 nM, the off-rate (koff) stood at 0.491 s⁻¹ and the on-rate (kon) came out at 497000 M⁻¹ s⁻¹.

B10: Her2-hzsp34.101 (bispecific antibody, IgG1, V domains shown)
VH 1: not shown
VL 1: not shown
VH 2: B1 VH with Y108A, V109A
VL 2: B3 VL 2
notes: 1+1 trastuzumab x hzsp34.101, IgG1 LALA knob-into-hole; also called Her2-sp34.101; copies: 1 + 1 + 1 + 1
In experiment [6], B10 gave a dissociation constant Kd of 179 nM, an off-rate constant (koff) of 0.0987 s⁻¹ and a kon of 551000 M⁻¹ s⁻¹. For the same molecule, in experiment [7], the Kd came out at 159 nM, the koff is 0.101 s⁻¹ and the on-rate (kon) turned out to be 637000 M⁻¹ s⁻¹.

B11: Her2-hzsp34.97 (bispecific antibody, IgG1, V domains shown)
VH 1: not shown
VL 1: not shown
VH 2: B1 VH with Y55A, N56G, N57G
VL 2: B3 VL 2
notes: 1+1 trastuzumab x hzsp34.97, IgG1 LALA knob-into-hole; also called Her2-sp34.97; copies: 1 + 1 + 1 + 1
In experiment [6], B11 yielded a Kd of 327 nM, a koff of 0.177 s⁻¹ and an on-rate (kon) of 543000 M⁻¹ s⁻¹. In experiment [7], this molecule had an equilibrium dissociation constant (Kd) of 361 nM, a dissociation rate constant (koff) of 0.191 s⁻¹ and a kon of 528000 M⁻¹ s⁻¹.
